Source: the supplement of paper PMC12042874
± gives the uncertainty stated by the source.

Assay: amyloid nucleation score (Sup35N fusion, yeast selection) (log enrichment); library NNK2; higher = more nucleation; inactive = no reads after selection
Outline: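 Using DiMSum, nucleation scores were taken as the log enrichment of output over input reads, centred on the mode score of non-aggregating sequences. The input and output reads came from Illumina sequencing of plasmid inserts, with sequences under 100 input reads excluded. The yeast were psi-negative, expressed Sup35N fused to peptides of 20 random codons, were induced with 100 μM copper sulfate for 24 hours, and were grown 7 days at 30°C on medium lacking adenine and uracil.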

| Substance | amyloid nucleation score |
| --- | --- |
| QEQDKSRELKCGGKLYVYEG | 1.04 ± 0.68 |
| QESWHNYESS | -0.805 ± 0.64 |
| QGEEVGWFRFGRKSGAINMV | 0.076 ± 0.36 |
| QGMNPLQSLDVKCYYL | inactive |
| QHAFRVHFTVRRVSSFFVR | 5.96 ± 0.086 |
| QHTKGHSPEWD | 1.47 ± 0.28 |
| QHVGDSWMSSVNLGVLRVRL | 0.055 ± 0.35 |
| QHWRLNWNEDFFMYWYGFLT | -0.655 ± 0.41 |
| QIFTKRVRTNLPFQFSNYVG | 0.479 ± 0.74 |
| QIGNVFNRY | -0.283 ± 1 |
| QLFTWILVAPKLPCWF | 6.36 ± 0.086 |
| QLFVMPCMNSFEGRKRNCFS | -0.836 ± 0.48 |
| QLIIMCVMGEQTICTVCHTG | 7.153 ± 0.042 |
| QLPAHFFGLFCLFP | -1.41 ± 0.73 |
| QLQFMRADFFLNKVKLRGET | inactive |
| QMFVRCSQ | 0.705 ± 0.66 |
| QMQPTGLRQNLSSPWPFVGE | 0.993 ± 0.29 |
| QNGRMSTHTDFGGM | 0.39 ± 0.38 |
| QRDCSYEYLTTKLTAELRGS | 0.216 ± 0.55 |
| QSMTTQNLGVWEELCKAFLI | inactive |
| QSNVCKIGSGVDESGNNMTL | 0.532 ± 0.37 |
| QSPSL | -0.381 ± 0.79 |
| QSRSRIGFGQCGRFGTAWWV | 0.605 ± 0.45 |
| QSRWSFKTYYSREKW | -0.278 ± 0.39 |
| QSTHMNT | -0.364 ± 0.48 |

| Substance | amyloid nucleation score |
| --- | --- |
| QSVLSLSGLYGHDLREGLL | -0.387 ± 0.49 |
| QSVQFRWRLCLAGFVGTGWR | 3.06 ± 0.089 |
| QSYVLMC | -0.233 ± 0.48 |
| QSYWSWLKKVSRFVYPHTRS | 0.291 ± 0.26 |
| QTCLHMSIGWVSP | 4.38 ± 0.082 |
| QTGQGYIVQGTVNSMKGCFR | -0.038 ± 0.65 |
| QTNYEAHFDRVINYAFVHLF | -0.392 ± 0.79 |
| QTSLSTMMYLPCH | 0.7 ± 0.49 |
| QTTDNFIVKHALCNVA | -0.622 ± 0.34 |
| QTTMKVSFSFLMRGGNPQVM | 4.56 ± 0.11 |
| QVFFFLITSRVRSVRFSQEF | 1.62 ± 0.25 |
| QVLFVRFRRYVYQRMWACWG | 0.405 ± 0.74 |
| QVLLFQWLSGDYQMIKMMRW | -0.207 ± 0.45 |
| QVLLGTLHKVY | 1.4 ± 0.49 |
| QVTSCGSWWSRSIWYEVVFS | -0.622 ± 1.1 |
| QVVFQGLFFYVGCSGHICRY | 7.67 ± 0.062 |
| QWRINSRLFG | -0.266 ± 0.22 |
| QWTHERSEPWHCSDVRSFIE | 5.757 ± 0.044 |
| QWVIKFIHRQIVVPFKFAGI | -0.385 ± 0.8 |
| QWVVTRDFVE | -0.041 ± 0.63 |
| QYPDSCS | -0.381 ± 0.79 |
| QYVDWLLYGLRDCYWYRRVY | 0.192 ± 0.3 |
| RACFHHIIGDCCYASFN | 8.757 ± 0.05 |
| RAHVYSSKDP | 5.92 ± 0.059 |
| RALEIALMLSTTCKSGFRRE | 5.56 ± 0.06 |

| Substance | amyloid nucleation score |
| --- | --- |
| RALVYVWACSVLLDNCTSRH | -0.935 ± 1.1 |
| RANKYVASRFVITFKVACFE | 0.092 ± 1.1 |
| RAPFLKMCL | -1.22 ± 0.75 |
| RARPC | inactive |
| RATISLVDMEFSLRDPQ | inactive |
| RATKGAPN | 0.858 ± 0.28 |
| RAVHARYLL | 1.86 ± 0.15 |
| RAWHPFDGEYNIVFSHIVLK | -0.525 ± 1.1 |
| RCCFAARMYYGHTLASAVIR | 1.38 ± 0.3 |
| RCERWCPWNFHNQAL | 0.449 ± 0.51 |
| RCFMGVA | 0.276 ± 0.65 |
| RCGFNLFTS | -0.883 ± 0.76 |
| RCLSKVLSLL | -1.72 ± 0.54 |
| RCNIWCHFPVCRAINIMLQA | -0.147 ± 1.1 |
| RCRFPVVIKQRDLVKEVMV | -0.222 ± 0.46 |
| RCRPLCI | -0.299 ± 1 |
| RCSDVTDFNKM | 0.122 ± 1.1 |
| RCSSRPCDLCVTEWIRRMEG | 0.357 ± 0.45 |
| RDALCVHWVAYIGNKHGWVA | 0.965 ± 0.17 |
| RDGLVQMDVVLINVRVEVVC | -0.13 ± 0.76 |
| RDKPPVSKYTSRTREFMLVR | 0.987 ± 0.39 |
| RDLDY | -1.27 ± 0.75 |
| RDPSTELMISRLARTESCGT | 4.94 ± 0.065 |
| RDQRLCV | -1.18 ± 1.1 |
| RDTVFYILSAWNLSAGSRKA | 3.04 ± 0.089 |

| Substance | amyloid nucleation score |
| --- | --- |
| RDWRANGSCHESSSGLDM | 1.6 ± 0.34 |
| REDRNATLCIVV | 2.67 ± 0.13 |
| REFQWCRSLMRYVRGWLVV | 3.19 ± 0.16 |
| RELKCQCLERVLLRVRQCAM | 6.821 ± 0.056 |
| RELLSLSYSLVMCVVLRV | 0.734 ± 0.18 |
| RELYYRMAVLNQSTTTLYRG | inactive |
| RESGLRFNNYMMRWLHGGRV | -0.072 ± 0.29 |
| RESYMLSYGKILNACQCIVG | 9.12 ± 0.079 |
| RFCWAMYNGFPHK | 4.33 ± 0.059 |
| RFCWC | 7.365 ± 0.042 |
| RFDHMSYRSCPRESEFEVTC | inactive |
| RFDINHCIKRCRFGRLVAEI | 3.12 ± 0.1 |
| RFERISQAKIARTLGLWEML | 0.878 ± 0.17 |
| RFFGTTFYTAMMTRGFETVT | -0.139 ± 0.28 |
| RFHELCV | 0.998 ± 0.74 |
| RFILMNLAIVVDFVGS | 6.92 ± 0.078 |
| RFLAN | inactive |
| RFLCFLPNNYLFSAGFSLVL | inactive |
| RFMFPRTSIVWNASYVVGVL | 2.92 ± 0.11 |
| RFMVTTAGRVLPLLSMRGWA | 4.68 ± 0.061 |
| RFMWLTLSSFQGLAEGLCTF | -0.631 ± 0.76 |
| RFNGN | -0.541 ± 1.1 |
| RFRCTTSSLRGLFWPNTWKK | -0.301 ± 0.76 |
| RFRKSLGALALRRIVGSEAM | 1.53 ± 0.39 |
| RFRRLSIIVILYTASRDLWR | 0.289 ± 0.41 |

| Substance | amyloid nucleation score |
| --- | --- |
| RFSCTKFRGKGLFWMLKCVL | -0.835 ± 0.27 |
| RFSLSMDLLNPYST | 4.15 ± 0.13 |
| RFSVDRSSRELICMLGQFDN | 0.356 ± 0.38 |
| RFTVFRSLKNYSRMHPLIKG | 4.929 ± 0.046 |
| RFYKSNGPRF | -1.28 ± 0.78 |
| RFYTVSRSRLSGMSMYLCRV | -0.294 ± 0.26 |
| RGERVSPNNGTS | 0.87 ± 0.14 |
| RGGRSVRTVNWPSYMMSVPD | -0.076 ± 0.3 |
| RGGTKRGELCDALNHQFSVL | 0.413 ± 0.22 |
| RGRTGRCSAFSQSILNGLRA | -0.181 ± 0.63 |
| RGSVNCGLFLSRKSDASGRG | 0.234 ± 0.57 |
| RGVKDRKRQVQFEKSSRSMA | 0.361 ± 0.21 |
| RHCDLQSRLPSTWYLVRYPC | 0.885 ± 0.74 |
| RHFMLSSTCPEGMNENGTFS | 0.811 ± 0.51 |
| RIIYEAC | -0.865 ± 0.23 |
| RIMSCNQITNIICVL | 4.89 ± 0.078 |
| RIQDLMVLTEGYRRDVIGPG | 0.533 ± 0.56 |
| RISRFCL | 1.52 ± 0.26 |
| RISSSGRP | 2.03 ± 0.082 |
| RITWFVIFIHCCKGLIR | -0.369 ± 0.54 |
| RIVLLLNVYNTREM | 5.04 ± 0.1 |
| RKAMRYVVCDRRPMCYRNSW | 0.752 ± 0.43 |
| RKCSGNAMRSLCSDPVRCVK | 0.669 ± 0.32 |
| RKMGSFNHLSERVSYHCVWL | 3.96 ± 0.052 |
| RKWYGQTSARADVAVS | 0.232 ± 0.25 |

| Substance | amyloid nucleation score |
| --- | --- |
| RLAFSKE | -0.065 ± 0.46 |
| RLASSIRWTTFSSDGRVRIL | 0.783 ± 0.57 |
| RLCRSAPG | 1.3 ± 0.44 |
| RLGIVSSVLVYWLYNYYSVL | inactive |
| RLHEYVSLLRGNQRVAHSRS | 3.893 ± 0.037 |
| RLHPMRSNI | -0.43 ± 0.3 |
| RLKCSYTGSALLGRSLGNPE | 0.29 ± 0.54 |
| RLKLMQFLHLAPIVPAILCC | 0.444 ± 0.35 |
| RLKMEICDLTFPAQLFQTFG | 3.49 ± 0.079 |
| RLLALLGSCYWAGLDVSARI | 3.36 ± 0.097 |
| RLMCVLMGYRGSSGVDCRSA | 0.185 ± 0.27 |
| RLNCACFRADTVGDYLGVRL | -0.158 ± 0.29 |
| RLRVVEPGNACWGQMLG | 0.165 ± 1 |
| RLRVY | -0.781 ± 0.35 |
| RLSSHTVMAWVSCNWGDFTV | 9.919 ± 0.065 |
| RLSVA | 1.24 ± 0.26 |
| RLTDSSTGDFKNL | -1.45 ± 0.61 |
| RLTRALLCFTNKALDQCCST | inactive |
| RLTYCSQFVWTWCCNRAING | 9.062 ± 0.024 |
| RLVRVGYLGRKTQRRSCQKL | 0.686 ± 0.2 |
| RLYHPSQWGDLILCIFVMEA | -0.343 ± 0.62 |
| RLYPLIVQFFMVCKT | 1.48 ± 0.23 |
| RLYSFCGIN | 1.68 ± 0.093 |
| RLYWVGGATGRFD | 2.02 ± 0.19 |
| RMDGNLQGHDDCVNV | 0.773 ± 0.29 |

| Substance | amyloid nucleation score |
| --- | --- |
| RMFDYDSGGNNRICYDYYAN | -1.69 ± 0.61 |
| RMFSIRFMWCFCSRRKPLLG | inactive |
| RMKSFLLNFARNSLCVVRHG | 1.43 ± 0.41 |
| RMLRKSNGS | 0.066 ± 0.3 |
| RMNGRYNLCTATGLVSASWW | 0.09 ± 0.4 |
| RMQVYGDMSKCKDSWFCFRT | 0.703 ± 0.4 |
| RMSHWLSYWVDKS | 0.938 ± 0.57 |
| RMSRVEWIPHVDFYPTHGLI | -0.439 ± 0.63 |
| RMTSHCMNSLIWQKNHGMRV | -0.348 ± 0.65 |
| RMWFVNNLDDWFLPTCLWDR | inactive |
| RNCTRFPWSIM | 0.131 ± 1 |
| RNEQMSPCITWVNYPDYLRT | 0.909 ± 0.6 |
| RNESHVNLLGFMLDRRPDRG | 4.37 ± 0.071 |
| RNFGAVAFWVGWHWVVFSVG | -0.588 ± 0.29 |
| RNGLTFRRTYSAYC | 1.01 ± 0.25 |
| RNIVDISSNVRCWLGRPAIS | 3.27 ± 0.066 |
| RNLDNHRTFFSFRIGLFMWS | 6.13 ± 0.077 |
| RNLGLMVTILSAELFRRCLW | -0.812 ± 0.23 |
| RNSIYMVTYIMVLDRIA | 6.127 ± 0.046 |
| RNSLKARYWWGLSGLLKVW | -1.01 ± 0.55 |
| RNVGDLMSRGSYYSIPSGNL | -1.03 ± 0.41 |
| RPASKTMEDGCGLI | inactive |
